This data set has as its system F1*sub RNA substrate (template-directed ligation). Description: fraction ligated after 30 min (ligated reads / total reads); higher = more ligase activity; sequences stand for … in GAGACCGCAACTGAAAAGTTGT…AGTTCTGCACGTAGAAGCAAAAGGC
Particulars: 42 °C. The procedure, abridged:
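Templates from an oligo pool were PCR-amplified, transcribed with T7 and gel-purified to give the ribozyme variants. Ligated and unligated products were separated on gel, reverse transcribed using barcoded primers, and read on a MiSeq. A quality filter of ≥20 was applied to core bases. Fraction ligated was taken as ligated reads as a share of all reads per variant.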
In the case of “TATCACTTGTCGTAAAACTTTGGTGGGTTGA [3d2062]”, the fraction ligated amounted to 0.0841.
Next, “TATCACTTGTCGTAAAATTTGGATGGGTTGA [3d2059]”: 0.803; “TATCACTTGTCGTAAACACTGGATGGGTTGA [3d2081]”: 0.787.
In the case of “TATCACTTGTCGTAAACACTTGATGGGTTGA [3d2082]”, the fraction ligated was 0.727.
On to “TATCACTTGTCGTAAACACTTGGAGGGTTGA [3d2084]”, for which the fraction ligated stood at 0.0636.
Next, “TATCACTTGTCGTAAACACTTGGATGGGTTA [3d2086]”: 0.492; “TATCACTTGTCGTAAACACTTGGATGGGTTG [3d2087]”: 0.774; “TATCACTTGTCGTAAACACTTGGATGGGTTGA [2d237]”: 0.786.
Next, “TATCACTTGTCGTAAACACTTGGATGGTTGA [3d2085]”: 0.105; “TATCACTTGTCGTAAACACTTGGTGGGTTGA [3d2083]”: 0.119; “TATCACTTGTCGTAAACACTTTATGGGTTGA [3d2088]”: 0.0805.
Next, “TATCACTTGTCGTAAACACTTTGAGGGTTGA [3d2090]”: 0.0504.
Regarding “TATCACTTGTCGTAAACACTTTGATGGGTTA [3d2092]”, the fraction ligated amounted to 0.0833.
Next, “TATCACTTGTCGTAAACACTTTGATGGGTTG [3d2093]”: 0.682.
Next, “TATCACTTGTCGTAAACACTTTGATGGGTTGA [2d238]”: 0.763.
Next, “TATCACTTGTCGTAAACACTTTGATGGTTGA [3d2091]”: 0.0645; “TATCACTTGTCGTAAACACTTTGGAGGGTTA [3d2099]”: 0.101; “TATCACTTGTCGTAAACACTTTGGAGGGTTG [3d2100]”: 0.0384.
“TATCACTTGTCGTAAACACTTTGGAGGGTTGA [2d240]” yielded a fraction ligated of 0.0926.
Next, “TATCACTTGTCGTAAACACTTTGGAGGTTGA [3d2098]”: 0.0433; “TATCACTTGTCGTAAACACTTTGGATGGGTT [3d2103]”: 0.628.
Next, “TATCACTTGTCGTAAACACTTTGGATGGGTTA [2d242]”: 0.77; “TATCACTTGTCGTAAACACTTTGGATGGGTTG [2d243]”: 0.827.
“TATCACTTGTCGTAAACACTTTGGATGGTTA [3d2101]” came in with a fraction ligated of 0.169.
Next, “TATCACTTGTCGTAAACACTTTGGATGGTTG [3d2102]”: 0.17.
Next, “TATCACTTGTCGTAAACACTTTGGATGGTTGA [2d241]”: 0.295; “TATCACTTGTCGTAAACACTTTGGGGGTTGA [3d2094]”: 0.0881.
Next, “TATCACTTGTCGTAAACACTTTGGTGGGTTA [3d2096]”: 0.057; “TATCACTTGTCGTAAACACTTTGGTGGGTTG [3d2097]”: 0.0291.
Sequence “TATCACTTGTCGTAAACACTTTGGTGGGTTGA [2d239]” had a fraction ligated of 0.0914.
Next, “TATCACTTGTCGTAAACACTTTGGTGGTTGA [3d2095]”: 0.0341.
Next, “TATCACTTGTCGTAAACACTTTGTGGGTTGA [3d2089]”: 0.0322; “TATCACTTGTCGTAAACATTGGATGGGTTGA [3d2074]”: 0.804.
Sequence “TATCACTTGTCGTAAACATTTGATGGGTTGA [3d2075]” came in with a fraction ligated of 0.384.
In turn, “TATCACTTGTCGTAAACATTTGGAGGGTTGA [3d2077]” had a fraction ligated of 0.0367.
Next, “TATCACTTGTCGTAAACATTTGGATGGGTTA [3d2079]”: 0.822; “TATCACTTGTCGTAAACATTTGGATGGGTTG [3d2080]”: 0.826.
Next, “TATCACTTGTCGTAAACATTTGGATGGGTTGA [2d236]”: 0.83; “TATCACTTGTCGTAAACATTTGGATGGTTGA [3d2078]”: 0.15; “TATCACTTGTCGTAAACATTTGGTGGGTTGA [3d2076]”: 0.0521.
Next, “TATCACTTGTCGTAAACCTTGGATGGGTTGA [3d2067]”: 0.783.
Take “TATCACTTGTCGTAAACCTTTGATGGGTTGA [3d2068]”: the fraction ligated turned out to be 0.672.
“TATCACTTGTCGTAAACCTTTGGAGGGTTGA [3d2070]” came in with a fraction ligated of 0.15.
Next, “TATCACTTGTCGTAAACCTTTGGATGGGTTA [3d2072]”: 0.746; “TATCACTTGTCGTAAACCTTTGGATGGGTTG [3d2073]”: 0.793; “TATCACTTGTCGTAAACCTTTGGATGGGTTGA [2d235]”: 0.785.
In the case of “TATCACTTGTCGTAAACCTTTGGATGGTTGA [3d2071]”, the fraction ligated was 0.256.
Next, “TATCACTTGTCGTAAACCTTTGGTGGGTTGA [3d2069]”: 0.182; “TATCACTTGTCGTAAACTTTGGATGGGTTGA [3d1993]”: 0.804; “TATCACTTGTCGTAACACTTGGATGGGTTGA [3d1996]”: 0.773.
As for “TATCACTTGTCGTAACACTTTGATGGGTTGA [3d1997]”, the fraction ligated was determined as 0.464.
For the sequence “TATCACTTGTCGTAACACTTTGGAGGGTTGA [3d1999]”, the fraction ligated was 0.0382.
Next, “TATCACTTGTCGTAACACTTTGGATGGGTTA [3d2001]”: 0.545.
Next, “TATCACTTGTCGTAACACTTTGGATGGGTTG [3d2002]”: 0.806.
Next, “TATCACTTGTCGTAACACTTTGGATGGGTTGA [2d222]”: 0.796; “TATCACTTGTCGTAACACTTTGGATGGTTGA [3d2000]”: 0.0413; “TATCACTTGTCGTAACACTTTGGTGGGTTGA [3d1998]”: 0.0145.
In turn, “TATCACTTGTCGTAACATTTGGATGGGTTGA [3d1995]” showed a fraction ligated of 0.84.
Next, “TATCACTTGTCGTAACCTTTGGATGGGTTGA [3d1994]”: 0.821; “TATCACTTGTCGTAAGAACTGGATGGGTTGA [3d2159]”: 0.802; “TATCACTTGTCGTAAGAACTTGATGGGTTGA [3d2160]”: 0.788.
In the case of “TATCACTTGTCGTAAGAACTTGGAGGGTTGA [3d2162]”, the fraction ligated was determined as 0.0364.
Next, “TATCACTTGTCGTAAGAACTTGGATGGGTTA [3d2164]”: 0.404; “TATCACTTGTCGTAAGAACTTGGATGGGTTG [3d2165]”: 0.777; “TATCACTTGTCGTAAGAACTTGGATGGGTTGA [2d255]”: 0.805.
In turn, “TATCACTTGTCGTAAGAACTTGGATGGTTGA [3d2163]” registered a fraction ligated of 0.0536.
For “TATCACTTGTCGTAAGAACTTGGTGGGTTGA [3d2161]”, the fraction ligated is 0.0804.
For the sequence “TATCACTTGTCGTAAGAACTTTATGGGTTGA [3d2166]”, the fraction ligated is 0.067.
Next, “TATCACTTGTCGTAAGAACTTTGAGGGTTGA [3d2168]”: 0.0393; “TATCACTTGTCGTAAGAACTTTGATGGGTTA [3d2170]”: 0.09; “TATCACTTGTCGTAAGAACTTTGATGGGTTG [3d2171]”: 0.726.
Next, “TATCACTTGTCGTAAGAACTTTGATGGGTTGA [2d256]”: 0.79; “TATCACTTGTCGTAAGAACTTTGATGGTTGA [3d2169]”: 0.0458; “TATCACTTGTCGTAAGAACTTTGGAGGGTTA [3d2177]”: 0.075.
Next, “TATCACTTGTCGTAAGAACTTTGGAGGGTTG [3d2178]”: 0.0318; “TATCACTTGTCGTAAGAACTTTGGAGGGTTGA [2d258]”: 0.0583; “TATCACTTGTCGTAAGAACTTTGGAGGTTGA [3d2176]”: 0.0186.
Sequence “TATCACTTGTCGTAAGAACTTTGGATGGGTT [3d2181]” came in with a fraction ligated of 0.219.
Next, “TATCACTTGTCGTAAGAACTTTGGATGGGTTA [2d260]”: 0.799; “TATCACTTGTCGTAAGAACTTTGGATGGGTTG [2d261]”: 0.81.
Next, “TATCACTTGTCGTAAGAACTTTGGATGGTTA [3d2179]”: 0.11; “TATCACTTGTCGTAAGAACTTTGGATGGTTG [3d2180]”: 0.0734; “TATCACTTGTCGTAAGAACTTTGGATGGTTGA [2d259]”: 0.139.
Next, “TATCACTTGTCGTAAGAACTTTGGGGGTTGA [3d2172]”: 0.0507; “TATCACTTGTCGTAAGAACTTTGGTGGGTTA [3d2174]”: 0.0479.
“TATCACTTGTCGTAAGAACTTTGGTGGGTTG [3d2175]” registered a fraction ligated of 0.0265.
Next, “TATCACTTGTCGTAAGAACTTTGGTGGGTTGA [2d257]”: 0.123.
Sequence “TATCACTTGTCGTAAGAACTTTGGTGGTTGA [3d2173]” showed a fraction ligated of 0.0396.
“TATCACTTGTCGTAAGAACTTTGTGGGTTGA [3d2167]” registered a fraction ligated of 0.0101.
Next, “TATCACTTGTCGTAAGAATTGGATGGGTTGA [3d2152]”: 0.785.
Next, “TATCACTTGTCGTAAGAATTTGATGGGTTGA [3d2153]”: 0.757.
Next, “TATCACTTGTCGTAAGAATTTGGAGGGTTGA [3d2155]”: 0.0724; “TATCACTTGTCGTAAGAATTTGGATGGGTTA [3d2157]”: 0.765; “TATCACTTGTCGTAAGAATTTGGATGGGTTG [3d2158]”: 0.798.
“TATCACTTGTCGTAAGAATTTGGATGGGTTGA [2d254]” returned a fraction ligated of 0.8.
Next, “TATCACTTGTCGTAAGAATTTGGATGGTTGA [3d2156]”: 0.208; “TATCACTTGTCGTAAGAATTTGGTGGGTTGA [3d2154]”: 0.135.

The values above are taken from the supplement of paper PMC6755084.
